B1: Src substrate cortactin (Homo sapiens), Q14247 (parent)
chain: MWKASAGHAVSIAQDDAGADDWETDPDFVNDVSEKEQRWGAKTVQGSGHQEHINIHKLRENVFQEHQTLKEKELETGPKASHGYGGKFGVEQDRMDKSAVGHEYQSKLSKHCSQVDSVRGFGGKFGVQMDRVDQSAVGFEYQGKTEKHASQKDYSSGFGGKYGVQADRVDKSAVGFDYQGKTEKHESQRDYSKGFGGKYGIDKDKVDKSAVGFEYQGKTEKHESQKDYVKGFGGKFGVQTDRQDKCALGWDHQEKLQLHESQKDYKTGFGGKFGVQSERQDSAAVGFDYKEKLAKHESQQDYSKGFGGKYGVQKDRMDKNASTFEDVTQVSSAYQKTVPVEAVTSKTSNIRANFENLAKEKEQEDRRKAEAERAQRMAKERQEQEEARRKLEEQARAKTQTPPVSPAPQPTEERLPSSPVYEDAASFKAELSYRGPVSGTEPEPVYSMEAADYREASSQQGLAYATEAVYESAEAPGHYPAEDSTYDEYENDLGITAVALYDYQAAGDDEISFDPDDIITNIEMIDDGWWRGVCKGRYGLFPANYVELRQ
partner: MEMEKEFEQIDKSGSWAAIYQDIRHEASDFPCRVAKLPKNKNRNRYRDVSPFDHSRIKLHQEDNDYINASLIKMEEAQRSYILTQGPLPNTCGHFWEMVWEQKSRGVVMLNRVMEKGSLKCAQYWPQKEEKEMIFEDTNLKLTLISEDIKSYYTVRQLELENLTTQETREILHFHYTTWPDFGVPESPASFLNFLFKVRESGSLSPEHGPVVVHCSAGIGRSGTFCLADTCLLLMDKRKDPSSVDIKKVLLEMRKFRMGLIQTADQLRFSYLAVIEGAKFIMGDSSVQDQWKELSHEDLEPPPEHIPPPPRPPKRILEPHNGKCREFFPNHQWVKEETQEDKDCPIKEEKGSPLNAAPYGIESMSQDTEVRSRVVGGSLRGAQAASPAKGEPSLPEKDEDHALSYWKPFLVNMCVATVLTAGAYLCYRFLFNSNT

Variants of: B1
Settings: with ptn1_human PTPN1, P18031
In the case of Y446F, the “effect of a mutation on the interaction” value is reported as “disrupting interaction”.

Reference: IntAct's records for PubMed 18387954
